{
  "source": "the DeepSol protein solubility set",
  "data": [
    {"experiment": "soluble on expression in E. coli; label from the status in PepcDB or PDB records", "values": [
      {"sequence": "SEAMFCDFPKINHGILYDEEKYKPFSQVPTGEVFYYSCEYNFVSPSKSFWTRITCAEEGWSPTPKCLRLCFFPFVENGHSESSGQTHLEGDTVQIICNTGYRLQNNENNISCVERGWSTPPKCRSTISAEKCGPPPPIDNGDITSFLLSVYAPGSSVEYQCQNLYQLEGNNQITCRNGQWSEPPKCLDPCVISQEIMEKYNIKLKWTNQQKLYSRTGDIVEFVCKSGYHPTKSHSFRAMCQNGKLVYPSCEEK", "soluble on expression in E. coli": "soluble"},
      {"sequence": "NGGVGVDVELITSINVENDTFIERNFTPQEIEYCSAQPSVQSSFAGTWSAKEAVFKSLGVKSLGGGAALKDIEIVRTNKNAPAVELHGNAKKAAEEAGVTDVKVSISHDDLQAVAVAVSTKK", "soluble on expression in E. coli": "soluble"},
      {"sequence": "MDFNLNDEQELFVAGIRELMASENWEAYFAECDRDSVYPERFVKALADMGIDSLLIPEEHGGLDAGFVTLAAVWMELGRLGAPTYVLYQLPGGFNTFLREGTQEQIDKIMAFRGTGKQMWNSAITEPGAGSDVGSLKTTYTRRNGKIYLNGSKCFITSSAYTPYIVVMARDGASPDKPVYTEWFVDMSKPGIKVTKLEKLGLRMDSCCEITFDDVELDEKDMFGREGNGFNRVKEEFDHERFLVALTNYGTAMCAFEDAARYANQRVQFGEAIGRFQLIQEKFAHMAIKLNSMKNMLYEAAWKADNGTITSGDAAMCKYFCANAAFEVVDSAMQVLGGVGIAGNHRISRFWRDLRVDRVSGGSDEMQILTLGRAVLKQYR", "soluble on expression in E. coli": "soluble"},
      {"sequence": "MKTQHVVVVGAGMGGLAAAIDLASRGLRVTVLERSPSPGGKMREIAVGGARLDAGPTVFTMRWVFEELFADAGASLGESLRLRAAEVLARHTWGDGAPFDLFADAARSTEAVGELAGAAEAKRFVAFCARARGIWQALEGPFIRGQRPSPGELVRRSGLSGLSGLARISPFTLLWKALGEHFHDPRLRQLFGRYATYCGSSPFLAPATLMLVAHVEQQGVWMVDGGMHQIARAMADLATAKGATFRYSTTAESVLVENGKVGGLILQGGERLAADIVLINGDAAALAARCFGPQVAAAVPPVPPTARSLSAVTWGLLAEAEGFPLLRHSVFFGNDYPGEFRDIFTHGRLPSSPTVYVCAQDRGDKAPTVGPSGPRPERLLVLVNAPARGDLSFPDAMELDTCTARTFAFLERCGLTLRRTPEATRVTTPADFNSLFPATGGALYGRASHGWSATFDRPGAKTAMPGLYLAGGSVHPGPGVPMAALSGRLAAQAVLADLTSRGRLEHHHHHH", "soluble on expression in E. coli": "not soluble"},
      {"sequence": "MGSDKIHHHHHHMEPEILFRKIDDLGEGPTYDERRKRVYWVDIRGKKFHYLSLENSEMKTFQSIGMISSIVPTDRDLMAATVDHGLYLIDDAGKHTLLTEVEKDQKSTRFNDGKADPFGNYVAGTMDLEEKRPIGSLYVLTGKTIRRILENLTISNGIAWNTKKKVFYHIDTPKRRVDAYSYDGKMNIERLGTAVDFRNEVGNPDGMTIDADGNLWVAHWGGNRITIHDPERQKKIDEIIFPAQNITSCVFAGNGLRDLYVSSASNGNPDDMGGSLFVVHTDYAGSKTFTFSVP", "soluble on expression in E. coli": "not soluble"},
      {"sequence": "MLDPGPNPAPRPSRDRAPHAVVIGSGFGGLAAAVRLGAKGYRVTVLEKLDKAGGRAYVHKQDGFSFDAGPTIVTAPYLFEELWKLCGKRMSDDITLKPMSPFYRIRFDDGTHFDYSDDRDAVLDQIAKFCPDDVPAYDRFMAASHEIFKVGFEQLGDQPFSHFTDMLKIAPAMIKLESYRSVYGLVAKHFKDPKLRQVFSFHPLLIGGNPFMSSSVYCLITYLEKQWGVHSAMGGTGALVTGLVNLIEGQGNTIRYNQDVRQIVVENGTACGVKLADGEVIKADIVVSNADSASTYRYLLPPETRKRWTDAKIEKSRYSMSLFVWYFGTKRRYEDVKHHTILLGPRYKELISDIFSRKVVAEDFSLYLHRPTATDPSLAPQGCDTFYVLSPVPNLLGDTDWHTKAETYRASIAKMLGATVLPDLENQIATSKITTPIDFQDRLSSFRGAAFGLEPVLWQSAWFRPHNQSEDVKRLYLVGAGTHPGAGLPGVLSSARVLDALVPEADSLVTSLEHHHHHH", "soluble on expression in E. coli": "not soluble"},
      {"sequence": "SNAMAALPDKEKLLRNFTRCANWEEKYLYIIELGQRLAELNPQDRNPQNTIHGCQSQVWIVMRRNANGIIELQGDSDAAIVKGLMAVVFILYHQMTAQDIVHFDVRPWFEKMALAQHLTPSRSQGLEAMIRAIRAKAATLS", "soluble on expression in E. coli": "soluble"},
      {"sequence": "MRGSHHHHHHGSPGLQEFMAATGANAEKAESHNDCPVRLLNPNIAKMKEDILYHFNLTTSRHNFPALFGDVKFVCVGGSPSRMKAFIRCVGAELGLDCPGRDYPNICAGTDRYAMYKVGPVLSVSHGMGIPSISIMLHELIKLLYYARCSNVTIIRIGTSGGIGLEPGTVVITEQAVDTCFKAEFEQIVLGKRVIRKTDLNKKLVQELLLCSAELSEFTTVVGNTMCTLDFYEGQGRLDGALCSYTEKDKQAYLEAAYAAGVRNIEMESSVFAAMCSACGLQAAVVCVTLLNRLEGDQISSPRNVLSEYQQRPQRLVSYFIKKKLSKA", "soluble on expression in E. coli": "soluble"},
      {"sequence": "SMTGPIVYVQNADGIFFKLAEGKGTNDAVIHLANQDQGVRVLGAEEFPVQGEVVKIASLMGFIKLKLNRYAIIANTVEETGRFNGHVFYRVLQHSIVSTKFNSRIDSEEAEYIKLLELHLKNSTFYFSYTYDLTNSLQRNEKVGPAASWKTADERFFWNHYLTEDLRNFAHQDPRIDSFIQPVIYGYAKTVDAVLNATPIVLGLITRRSIFRAGTRYFRRGVDKDGNVGNFNETEQILLAENPESEKIHVFSFLQTRGSVPIYWAEINNLKYKPNLVLGENSLDATKKHFDQQKELYGDNYLVNLVNQKGHELPVKEGYESVVHALNDPKIHYVYFDFHHECRKMQWHRVKLLIDHLEKLGLSNEDFFHKVIDSNGNTVEIVNEQHSVVRTNCMDCLDRTNVVQSVLAQWVLQKEFESADVVATGSTWEDNAPLLTSYQNLWADNADAVSVAYSGTGALKTDFTRTGKRTRLGAFNDFLNSASRYYQNNWTDGPRQDSYDLFLGG", "soluble on expression in E. coli": "soluble"},
      {"sequence": "GMGLALCGAAAQAQEKPNFLIIQCDHLTQRVVGAYGQTQGCTLPIDEVASRGVIFSNAYVGCPLSQPSRAALWSGMMPHQTNVRSNSSEPVNTRLPENVPTLGSLFSESGYEAVHFGKTHDMGSLRGFKHKEPVAKPFTDPEFPVNNDSFLDVGTCEDAVAYLSNPPKEPFICIADFQNPHNICGFIGENAGVHTDRPISGPLPELPDNFDVEDWSNIPTPVQYICCSHRRMTQAAHWNEENYRHYIAAFQHYTKMVSKQVDSVLKALYSTPAGRNTIVVIMADHGDGMASHRMVTKHISFYDEMTNVPFIFAGPGIKQQKKPVDHLLTQPTLDLLPTLCDLAGIAVPAEKAGISLAPTLRGEKQKKSHPYVVSEWHSEYEYVTTPGRMVRGPRYKYTHYLEGNGEELYDMKKDPGERKNLAKDPKYSKILAEHRALLDDYITRSKDDYRSLKVDADPRCRNHTPGYPSHEGPGAREILKRK", "soluble on expression in E. coli": "soluble"},
      {"sequence": "MKVDVEVLRNFEERLNPAKPENIKIIGYGEISTVFELPELPGIALKRIPNFKSVEQVKRYIEVYFEYIELLEGAGLRVPDSDATFVERRDGKTVLYIAQKMVGNVGNKVIQTAKADEAEEVFGRVLAEMKKVWDFNAERREEGLEIGIDGQISNWAIMEEIYYFDTSTPMIRKNGIHQLDTEVFLQACPPGIRILLKKIFLQDILDRYFDFRKVVVDMIANLYKEGREDLIPIAINLANEFFKLNGYDFEAITAKEVEKYYKEDAFIWSLYLNLRKVHRFILTKALFGRYEYILPGKIRR", "soluble on expression in E. coli": "not soluble"},
      {"sequence": "MGSDKIHHHHHHMYVNRIGTFRDHPDLYGVSVYFQGCDAKPKCYMCHNPETWHLSEEYKRPSEVVTKIIDEKLSSLLRYFPKAALVFLGGEPLAPYNREEMLSLSKMFKEKYGERLTVVLFTWRLPKDIVKENLLKYVQYVDEFVMGRYLHTYRRDGFPASKNQIHIDRRTFERMIEAVLRRGHYEGSVFVRKRI", "soluble on expression in E. coli": "not soluble"},
      {"sequence": "MITLYGFGTGFGLPEISPFVTKTEVQLKMAGLPYRKERAMPPASPKGQLPFIDDGGEAVADSTFIRAHIERRYGFDFDAGLSLQERAQAWAFERMIEHHVYWALVGARWVDPINFAKGPSHFFDGAPEHNREKLREDAQFRVAENYLLSGLGRHAPDDDVDLAVRSLFALSVQLGDKAYLMGNKPCGVDATAFGALAGILTPFFESGLRQRAEGFPNLTAYVDRMMDNYYPEFAWTPLRQAALEHHHHHH", "soluble on expression in E. coli": "not soluble"},
      {"sequence": "EKVIIEKAAGDAEAIAFDGRTYMEYHNAVTKSPDALDYPAEPSEKALQSNHFELSIKTEATQGLILWSGKGLERSDYIALAIVDGFVQMMYDLGSKPVVLRSTVPINTNHWTHIKAYRVQREGSLQVGNEAPITGSSPLGATQLDTDGALWLGGMERLSVAHKLPKAYSTGFIGCIRDVIVDRQELHLVEDALNNPTILHCSAK", "soluble on expression in E. coli": "soluble"},
      {"sequence": "MGSDKIHHHHHHMAMAHGRRRVFGSVEHRKIDMSFRPLFGSGRIRTAGEQPAQPTTASWPGSSVVFDRRRWTCREAELRWTAPHHVLVLTEEGATSQTSIRSDGKMVYEGRDRSGAITFVPAGVERLGAYRDVDLTYSALWIDPRSISPASEHLKDLPVLINKSDTVISALLKSLSSEISNGHIPDSAYVDHLIALVTLRIRGFADEPVPAPRHDSLGSRVVKRVRDYVDAHLDGDISLGDLADVAGVASDSFARRFKVTTGFAPYAYVLEERIRRSEALLCETDTTLSAIALACGFSSQSHFTTTFKRLRGVTPQAYRSKVIPES", "soluble on expression in E. coli": "not soluble"},
      {"sequence": "MSLKRFYSLFALPLITAATWANEPLPDRQTELPAVKKENHGEYLQPRDLSKIPNTAFGDQVKRGYSLFVNSQQMRGKYVGNEQNCVNCHMEAGRKANAAPLWAAYMAYPAYRKKNDRVNSYADRIQGCFEYSMNGKAPAYDSPEIVALSAYAYWLAMGGLLDSYGMNDEAVPELDIKALQVGGKAQDFPLPDAIAQALPVKERGNLAGRGYPKIAAPKQEPSPERGALVYEKNCETCHRADGSGIKGTDGHSYIPPLWGEFAYNWGAGMHRINTAAYFIYENMPLGKSVQLTEQEAWDVAAYINSHERPQDPRFKGNVTANAEKYHQHQGYYGKTLNGKQIGKNAFASGTEGHHHHHH", "soluble on expression in E. coli": "not soluble"},
      {"sequence": "MAWDLKVKMLGGNDFLVSVTNSMTVSELKKQIAQKIGVPAFQQRLAHQTAVLQDGLTLSSLGLGPSSTVMLVVQNCSEPLSILVRNERGHSNIYEVFLTQTVDTLKKKVSQREQVHEDQFWLSFEGRPMEDKELLGEYGLKPQCTVIKHLRLRGGGGDQCA", "soluble on expression in E. coli": "not soluble"},
      {"sequence": "MHYSYLEPGLHAELAAITPDEAVAHLRNHLGNLLLDPAVTAAYINRLGVLTPEETTPSTRAWLTYLLVRYCDLLPLDLAAQRILAQVTGNAAPHLRDLERCAIPDPIERKLERLGAGEDSERNRAMLLALLHEYPYSPAIMERLMTVELALDIPVGGEWLPSVRPPAGLLRPLHERLFIHAMMQGDTERALQHAAACVPDNPSPHLLNHLAELHARLGDTQQALNLYGASLEADPLQHPVRLRMEALAKPPRAHADALHHRIAICLYSFNKAELLERTLSSLAASQTGEAHILVLLNGCTDDSATRVAAVNERLFNGRLEVIDMPINIGAPAARNWLLAKQTVREADFVAFLDDDVDVPAAWLPRLVGNLEEHPGAGVAGTRVRNPGDVPRLQYLYRNISVARPGLIRLSLDTPTLHHDTGFYDFTRSTTSVMGCCHVFTRRALDEVPAFDLRFSPSQMDDIAHDIDLALAGFDVLYTGDVVCVHHQMSGLGRANATDWKRFGNVAGNDVKFYYRFADRLDALGRLNNLGFMPDMPPALEHHHHHH", "soluble on expression in E. coli": "soluble"},
      {"sequence": "SRIVAPPKNYPDSSQHEWVSLTRISKNMQLAVIATEDQKFPHHYGVDFESLFDVISEAGDHGPSRGASTITQQAAKNVFLFPSHSYVRKAYELYFALLMELMWSKERILEVYLNVVEFGPGIYGAEAAAQNYFGVSAKQLSKWQAARLAVVLPNPYRIKVYPQSDYTARRTRWAMNQMSNLGSVQL", "soluble on expression in E. coli": "not soluble"}
    ]}
  ]
}
